Blank lines part the entries; values can stand above or below the binder they belong to.
B4: human BTN3A1 (CD277) expressed on the cell surface (BTN-K32 aAPCs: K562 cells expressing human CD32 and BTN3A1; BMDCs of BTN3A1 knock-in mice) (receptor)
chain: not shown
notes: also called BTNA31-K32; BTN3-K32

Assays:
[1] = target: B4; experiment: binding of recombinant Fc proteins to BTN-K32 aAPCs vs. mock-transduced aAPCs
[2] = target: T1, biotinylated human CD277 Fc fusion (human, UniProt O00481 30-254, limits assumed, biotinylated with EZ-Link Sulfo-NHS biotinylation reagent (sites not given)); experiment: yeast display selection (MACS and FACS) for binders of biotinylated human CD277 Fc fusion
T1 construct: also called human CD277 Fc fusion antigen

[3] = target: B4; experiment: cell-based or functional assay
[4] = target: T2, CD5 of OKT3-activated primary αβ T cells (human, UniProt P06127 25-495); experiment: co-immunoprecipitation from activated primary αβ T cells after DTSSP crosslinking, LC-MS/MS
T2 construct: whole, on cells
T2 sequence (looked up): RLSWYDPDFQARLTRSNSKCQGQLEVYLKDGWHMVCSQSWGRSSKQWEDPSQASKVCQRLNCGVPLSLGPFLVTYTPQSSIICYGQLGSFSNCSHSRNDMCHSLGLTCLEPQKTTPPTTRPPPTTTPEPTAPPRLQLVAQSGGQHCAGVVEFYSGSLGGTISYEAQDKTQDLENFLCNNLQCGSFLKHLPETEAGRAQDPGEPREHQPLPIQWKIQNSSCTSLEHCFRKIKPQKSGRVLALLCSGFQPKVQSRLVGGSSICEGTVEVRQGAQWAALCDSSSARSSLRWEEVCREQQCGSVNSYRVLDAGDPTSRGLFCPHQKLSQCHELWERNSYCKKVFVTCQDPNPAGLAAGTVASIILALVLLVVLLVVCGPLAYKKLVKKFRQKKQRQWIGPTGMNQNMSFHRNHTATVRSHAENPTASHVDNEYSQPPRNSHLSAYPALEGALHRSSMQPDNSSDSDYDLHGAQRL
Description: (§1) Proteins were eluted with LDS sample buffer supplemented with DTT by heating at 70° C. for 10 minutes. Eluted fractions from BTN3A1-Fc and control were run into an SDS-gel for 0.5 cm, and the entire gel lanes were excised and digested with trypsin. Liquid chromatography tandem mass spectrometry (LC-MS/MS) analysis of tryptic digests was performed by the Wistar Proteomics and Metabolomics Facility using a Q Exactive HF mass spectrometer (Thermo Scientific). MS/MS spectra generated from the LC-MS/MS runs were searched using full tryptic specificity against the UniProt human database (www.uniprot.org; Oct. 1, 2017) using the MaxQuant 1.6.0.16 program. Protein quantitation was based on intensity and MS/MS count was determined from unique and razor peptides (J. Cox, M. Mann, MaxQuant enables high peptide identification rates, individualized p.p.b.-range mass accuracies and proteome-wide protein quantification. Nat Biotechnol 26, 1367-1372 (2008)). False discovery rates for protein and peptide were set at 1%. Protein tables were filtered to remove reverse database entries, common contaminants, and proteins identified by a single peptide.
(§2) To determine the mechanism by which BTN3A1 (also referred to herein as CD277) inhibits αβ T cell activity, the binding of BTN3A1 to potential immunosuppressive receptors was ruled out by comparing the binding of recombinant NKG2A, GPR174, NRP1, NRP2, PD-1, CTLA4, TIM-3 and BTLA Fc proteins to MHC-I⁻CD32⁺ K562 artificial Antigen-Presenting Cells with BTN3A1 retrovirally expressed on the surface of the cell (BTN-K32 aAPCs) vs. mock-transduced aAPCs. Binding of BTN3A1 to these immunosuppressive receptors was not observed. BTN3A1-Fc proteins were then used to co-immunoprecipitate (co-IP) the binding partner(s) of BTN3A1 on OKT3-activated primary αβ T cells from three independent pull downs from three different donors.

[5] = target: T3, CD44 of OKT3-activated primary αβ T cells (human, UniProt P16070 21-742); experiment: as above
T3 construct: whole, on cells
T3 sequence (P16070 21-742): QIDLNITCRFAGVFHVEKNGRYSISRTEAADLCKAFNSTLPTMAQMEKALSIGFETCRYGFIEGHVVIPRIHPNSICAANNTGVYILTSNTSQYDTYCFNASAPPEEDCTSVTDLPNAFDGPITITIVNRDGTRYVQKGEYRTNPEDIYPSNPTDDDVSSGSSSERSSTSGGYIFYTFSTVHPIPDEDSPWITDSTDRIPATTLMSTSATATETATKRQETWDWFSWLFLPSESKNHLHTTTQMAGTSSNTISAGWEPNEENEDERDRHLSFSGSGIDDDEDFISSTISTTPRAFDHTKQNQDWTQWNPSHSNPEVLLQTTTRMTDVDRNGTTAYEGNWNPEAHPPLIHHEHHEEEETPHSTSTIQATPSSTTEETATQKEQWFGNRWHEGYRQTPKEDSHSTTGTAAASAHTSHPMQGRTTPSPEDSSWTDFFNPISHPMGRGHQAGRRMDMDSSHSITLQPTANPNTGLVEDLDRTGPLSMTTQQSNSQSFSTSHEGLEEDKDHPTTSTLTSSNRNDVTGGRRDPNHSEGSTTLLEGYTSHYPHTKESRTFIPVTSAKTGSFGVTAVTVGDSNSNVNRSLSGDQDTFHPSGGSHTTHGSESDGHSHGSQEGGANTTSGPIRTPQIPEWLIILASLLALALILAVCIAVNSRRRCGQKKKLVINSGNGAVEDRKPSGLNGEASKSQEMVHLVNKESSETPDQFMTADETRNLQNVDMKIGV
Description: as §1, §2

[6] = target: T4, CD2 of OKT3-activated primary αβ T cells (human, UniProt P06729 25-351); experiment: as above
T4 construct: whole, on cells
T4 sequence (looked up): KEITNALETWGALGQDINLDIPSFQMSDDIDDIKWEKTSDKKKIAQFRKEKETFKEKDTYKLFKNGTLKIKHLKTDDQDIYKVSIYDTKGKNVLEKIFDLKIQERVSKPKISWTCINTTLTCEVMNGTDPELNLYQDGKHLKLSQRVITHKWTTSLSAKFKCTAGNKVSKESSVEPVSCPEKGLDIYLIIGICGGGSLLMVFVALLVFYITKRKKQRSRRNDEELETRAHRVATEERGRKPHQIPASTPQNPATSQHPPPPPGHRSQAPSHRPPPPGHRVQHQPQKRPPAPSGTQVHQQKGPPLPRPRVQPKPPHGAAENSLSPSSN
Description: as §1, §2

[7] = target: T5, recombinant NRP2 Fc protein (UniProt O60462 23-864, limits assumed); experiment: binding of recombinant Fc proteins to BTN-K32 aAPCs vs. mock-transduced aAPCs
T5 construct: Construct not described
T5 sequence (looked up): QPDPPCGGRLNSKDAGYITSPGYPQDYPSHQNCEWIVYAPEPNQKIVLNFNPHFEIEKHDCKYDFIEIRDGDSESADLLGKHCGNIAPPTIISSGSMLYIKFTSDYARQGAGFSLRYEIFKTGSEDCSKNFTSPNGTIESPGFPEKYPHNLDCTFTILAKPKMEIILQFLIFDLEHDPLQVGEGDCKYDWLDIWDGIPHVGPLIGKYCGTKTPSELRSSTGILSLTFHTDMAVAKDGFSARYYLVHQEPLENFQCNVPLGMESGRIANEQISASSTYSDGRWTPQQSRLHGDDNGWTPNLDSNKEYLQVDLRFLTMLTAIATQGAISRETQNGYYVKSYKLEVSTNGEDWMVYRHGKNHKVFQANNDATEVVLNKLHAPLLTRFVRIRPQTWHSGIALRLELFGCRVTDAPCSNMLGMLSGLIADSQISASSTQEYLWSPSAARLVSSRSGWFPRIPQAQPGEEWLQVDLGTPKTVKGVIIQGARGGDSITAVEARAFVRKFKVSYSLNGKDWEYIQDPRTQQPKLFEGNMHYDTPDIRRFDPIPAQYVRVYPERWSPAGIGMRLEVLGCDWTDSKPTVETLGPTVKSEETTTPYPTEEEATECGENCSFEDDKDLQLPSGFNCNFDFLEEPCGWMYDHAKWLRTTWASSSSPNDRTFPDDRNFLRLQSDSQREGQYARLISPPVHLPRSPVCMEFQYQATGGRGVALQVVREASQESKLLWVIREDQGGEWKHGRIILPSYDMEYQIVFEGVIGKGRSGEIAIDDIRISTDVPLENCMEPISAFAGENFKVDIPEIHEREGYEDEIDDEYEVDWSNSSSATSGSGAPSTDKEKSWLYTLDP

[8] = target: T6, recombinant NRP1 Fc protein (UniProt O14786-2 22-644, limits assumed); experiment: as above
T6 construct: Construct not described
T6 sequence (looked up): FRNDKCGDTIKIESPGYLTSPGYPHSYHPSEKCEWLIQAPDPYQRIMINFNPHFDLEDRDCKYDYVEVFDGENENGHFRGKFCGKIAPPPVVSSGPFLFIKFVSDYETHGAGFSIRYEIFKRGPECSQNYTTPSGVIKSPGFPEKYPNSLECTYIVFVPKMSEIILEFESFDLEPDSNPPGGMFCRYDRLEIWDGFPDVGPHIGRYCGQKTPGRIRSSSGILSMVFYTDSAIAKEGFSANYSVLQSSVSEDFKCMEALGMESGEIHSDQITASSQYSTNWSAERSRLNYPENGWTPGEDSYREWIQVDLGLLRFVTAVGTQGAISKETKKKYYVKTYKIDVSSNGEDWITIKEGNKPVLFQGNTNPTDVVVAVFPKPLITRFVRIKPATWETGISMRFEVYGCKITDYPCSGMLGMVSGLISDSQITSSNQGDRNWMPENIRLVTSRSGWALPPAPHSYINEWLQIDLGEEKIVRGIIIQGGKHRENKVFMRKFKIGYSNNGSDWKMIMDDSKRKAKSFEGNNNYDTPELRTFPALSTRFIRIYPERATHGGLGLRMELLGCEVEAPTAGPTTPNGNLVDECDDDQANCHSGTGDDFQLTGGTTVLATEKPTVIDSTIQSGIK

- binding result [1]: no binding
B1: recombinant NKG2A Fc protein (Fc fusion, not shown: a dimerising Fc or GST)
chain: not shown
notes: Construct not described

- binding result [2]: binds
- IFN-γ release of purified CD4+ T cells stimulated with BTN-K32 cells (ELISA, fold over baseline) [3]: > 2 fold
- IFN-γ release of purified CD8+ T cells stimulated with BTN-K32 cells (ELISA, fold) [3]: ~1300 fold
- proliferation of gated CD4+ T cells within total PBMCs stimulated with anti-CD3/anti-CD28 coated BTN-K32 cells (fold change) [3]: ≥ 1.5 fold
- proliferation of gated CD8+ T cells within total PBMCs stimulated with anti-CD3/anti-CD28 coated BTN-K32 cells (fold change) [3]: ≥ 1.5 fold
- proliferation of purified CD4+ T cells stimulated with BTN-K32 cells (fold change) [3]: ≥ 1.5 fold
- proliferation of purified CD8+ T cells stimulated with BTN-K32 cells (fold change) [3]: ≥ 2 fold
B2: anti-CD277 monoclonal antibody mAb1 (antibody, human IgG1, kappa, N297A)
heavy: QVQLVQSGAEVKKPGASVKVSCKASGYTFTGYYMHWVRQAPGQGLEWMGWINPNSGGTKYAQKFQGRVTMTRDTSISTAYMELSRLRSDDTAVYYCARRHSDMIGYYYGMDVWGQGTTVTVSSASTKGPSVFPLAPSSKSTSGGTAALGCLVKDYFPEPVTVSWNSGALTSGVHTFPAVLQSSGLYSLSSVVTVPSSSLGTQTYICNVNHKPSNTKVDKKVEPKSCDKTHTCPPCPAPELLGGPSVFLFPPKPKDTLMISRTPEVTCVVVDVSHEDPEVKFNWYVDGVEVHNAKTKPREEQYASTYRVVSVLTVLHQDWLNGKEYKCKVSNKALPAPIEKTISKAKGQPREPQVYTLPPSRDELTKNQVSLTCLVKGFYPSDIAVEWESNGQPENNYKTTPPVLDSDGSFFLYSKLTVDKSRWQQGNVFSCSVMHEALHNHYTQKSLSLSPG
light: DIQMTQSPSSVSASVGDRVTITCRASQGISSWLAWYQQKPGKAPKLLIYAASSLQSGVPSRFSGSGSGTDFTLTISSLQPEDFATYYCQQATDFPPTFGGGTKVEIKRTVAAPSVFIFPPSDEQLKSGTASVVCLLNNFYPREAKVQWKVDNALQSGNSQESVTEQDSKDSTYSLSSTLTLSKADYEKHKVYACEVTHQGLSSPVTKSFNRGEC
notes: also called anti-CD277 antibody mAb1; anti-CD277 mAb1

- binding result [4]: no binding (tested: 10 µg/ml BTN3A1-Fc)
- binding result [5]: no binding (tested: 10 µg/ml BTN3A1-Fc)
- binding result [6]: no binding (tested: 10 µg/ml BTN3A1-Fc)
B3: BTN3A1-Fc fusion protein (R&D systems Cat #8539-BT-050) (Fc fusion)
chain: not shown
notes: Bought from R&D systems; also called BTN3A1-Fc proteins; CD277; not shown: Fc part of the bought fusion protein

Binder: B4
- binding result [7]: no binding
- binding result [8]: no binding

Reference: patent US20210388089A1 (COMPASS THERAPEUTICS, published 2021)
